# Test results from patent US20210292428A1 (US Dept. of Health and Human Services, published 2021).
# B1: CT5 antibody (antibody, IgG1, V domains shown)
# VH: EVKLVESGGGLVQSGRSLRLSCATSGFTFSDFYMEWVRQAPGKGLEWIVASRDKANDYTTAYSASVKGRFIVSRDTSQSILYLQMNALRAEDTAIYYCVRDFYDYDEAYWGQGTLVTVS
# VL: DIQMTQSPSSLSASLGGTVTITCKASEDINNYIAWYQHKPGKGPRLLIQYTSTLQPGIPSRFSGSGSGRDYSLSISNLEPEDIATYYCLQYDILWTFGGGTKLEIK
# B2: CT3 antibody (antibody, IgG1, V domains shown)
# VH: EVQLQQSGPELVKPGASVKMSCKASRFTFTDYNIHWVKQSPGKTLEWIGYINPNNGDIFYKQKFNGKATLTINKSSNTAYMELRSLTSEDSAVYYCVRSSNIRYTFDRFFDVWGTGTTVTVSS
# VL: ENVLTQSPAIMSASLGEKVTMSCRASSSVNYIYWYQQKSDASPKLWIYYTSNLAPGVPARFSGSGSGNSYSLTISSMEGEDAATYYCQQFSSSPSTFGTGTKLELK
# notes: also called anti-GPC2 antibody CT3
# B3: CT3-PE38 immunotoxin (other)
# chain: EVQLQQSGPELVKPGASVKMSCKASRFTFTDYNIHWVKQSPGKTLEWIGYINPNNGDIFYKQKFNGKATLTINKSSNTAYMELRSLTSEDSAVYYCVRSSNIRYTFDRFFDVWGTGTTVTVSSGGGGSGGGGSGGGGSENVLTQSPAIMSASLGEKVTMSCRASSSVNYIYWYQQKSDASPKLWIYYTSNLAPGVPARFSGSGSGNSYSLTISSMEGEDAATYYCQQFSSSPSTFGTGTKLELKSAAKASGGPEGGSLAALTAHQACHLPLETFTRHRQPRGWEQLEQCGYPVQRLVALYLAARLSWNQVDQVIRNALASPGSGGDLGEAIREQPEQARLALTLAAAESERFVRQGTGNDEAGAANGPADSGDALLERNYPTGAEFLGDGGDVSFSTRGTQNWTVERLLQAHRQLEERGYVFVGYHGTFLEAAQSIVFGGVRARSQDLDAIWRGFYIAGDPALAYGYAQDQEPDARGRIRNGALLRVYVPRSSLPGFYRTSLTLAAPEAAGEVERLIGHPLPLRLDAITGPEEEGGRLETILGWPLAERTVVIPSAIPTDPRNVGGDLDPSSIPDKEQAISALPDYASQPGKPPREDLK
# B4: CT3-T20 immunotoxin (other)
# chain: EVQLQQSGPELVKPGASVKMSCKASRFTFTDYNIHWVKQSPGKTLEWIGYINPNNGDIFYKQKFNGKATLTINKSSNTAYMELRSLTSEDSAVYYCVRSSNIRYTFDRFFDVWGTGTTVTVSSGGGGSGGGGSGGGGSENVLTQSPAIMSASLGEKVTMSCRASSSVNYIYWYQQKSDASPKLWIYYTSNLAPGVPARFSGSGSGNSYSLTISSMEGEDAATYYCQQFSSSPSTFGTGTKLELKKLKASGGRHRQPRGWEQLGGGGGSPTGAEFLGDGGDVSFSTRGTQNWTVERLLQAHAQLEERGYVFVGYHGTALEAAQSIVFGGVRARSQDLDAIWRGFYIAGDPAHAYGYAQDQEPDARGRIANGALLRVYVPASSLPGFYRTSLTLAAPEAAGEVERLIGHPLPLRLDAITGPEEEGGREETILGWPLAERTVVIPSAIPTDPRNVGGDLDPSSIPDKEQAISALPDYASQPGKPPREDLK
# Assays:
# [1] = molecular target: T1, human GPC2 expressed on the cell surface (human, UniProt Q8N158 24-554); experiment: flow cytometry on GPC2-positive neuroblastoma cell lines LAN1 and IMR5, CT5 at 10 ng/ml, counts normalized to mode
# T1 construct: whole, on cells; also called cell-surface GPC2; GPC2 on LAN1, IMR5, G10, F8, SKNBE2 and NBEB cells
# T1 sequence (looked up): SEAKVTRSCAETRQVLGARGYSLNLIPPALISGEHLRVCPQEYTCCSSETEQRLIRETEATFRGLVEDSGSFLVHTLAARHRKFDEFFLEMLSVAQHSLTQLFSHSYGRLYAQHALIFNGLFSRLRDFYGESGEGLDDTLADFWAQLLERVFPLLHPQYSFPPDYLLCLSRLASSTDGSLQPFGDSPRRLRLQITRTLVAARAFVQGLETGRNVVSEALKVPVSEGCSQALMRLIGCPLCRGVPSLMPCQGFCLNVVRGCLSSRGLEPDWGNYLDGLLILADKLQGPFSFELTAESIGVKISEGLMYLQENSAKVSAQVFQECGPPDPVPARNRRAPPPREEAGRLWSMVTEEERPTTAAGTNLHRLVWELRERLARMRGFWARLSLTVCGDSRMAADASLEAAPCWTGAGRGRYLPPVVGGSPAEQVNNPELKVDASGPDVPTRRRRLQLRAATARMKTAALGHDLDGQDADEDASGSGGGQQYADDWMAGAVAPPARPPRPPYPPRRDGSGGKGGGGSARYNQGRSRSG
# [2] = molecular target: T2, recombinant human glypican-2 (GPC2) (human, UniProt Q8N158 24-554, limits assumed); experiment: ELISA on recombinant glypican proteins, absorbance OD450nm
# T2 construct: also called human GPC2; huGPC2
# T2 sequence (looked up): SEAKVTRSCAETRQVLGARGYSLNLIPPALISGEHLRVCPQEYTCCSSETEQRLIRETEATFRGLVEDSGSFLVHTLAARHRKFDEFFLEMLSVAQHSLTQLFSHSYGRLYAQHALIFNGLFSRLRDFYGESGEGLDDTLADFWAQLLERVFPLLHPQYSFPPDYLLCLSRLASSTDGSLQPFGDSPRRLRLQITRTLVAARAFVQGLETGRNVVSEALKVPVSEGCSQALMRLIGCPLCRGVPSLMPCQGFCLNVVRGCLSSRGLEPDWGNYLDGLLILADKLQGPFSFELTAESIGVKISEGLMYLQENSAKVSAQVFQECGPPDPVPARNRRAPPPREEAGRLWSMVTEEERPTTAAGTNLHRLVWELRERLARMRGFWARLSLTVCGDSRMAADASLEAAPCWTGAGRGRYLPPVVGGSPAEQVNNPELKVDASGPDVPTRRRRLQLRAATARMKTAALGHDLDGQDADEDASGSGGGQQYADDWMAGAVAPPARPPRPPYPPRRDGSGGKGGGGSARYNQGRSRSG
# [3] = molecular target: T3, recombinant human glypican-5 (human, UniProt P78333 25-554, limits assumed); experiment: as above
# T3 construct: also called huGPC5
# T3 sequence (looked up): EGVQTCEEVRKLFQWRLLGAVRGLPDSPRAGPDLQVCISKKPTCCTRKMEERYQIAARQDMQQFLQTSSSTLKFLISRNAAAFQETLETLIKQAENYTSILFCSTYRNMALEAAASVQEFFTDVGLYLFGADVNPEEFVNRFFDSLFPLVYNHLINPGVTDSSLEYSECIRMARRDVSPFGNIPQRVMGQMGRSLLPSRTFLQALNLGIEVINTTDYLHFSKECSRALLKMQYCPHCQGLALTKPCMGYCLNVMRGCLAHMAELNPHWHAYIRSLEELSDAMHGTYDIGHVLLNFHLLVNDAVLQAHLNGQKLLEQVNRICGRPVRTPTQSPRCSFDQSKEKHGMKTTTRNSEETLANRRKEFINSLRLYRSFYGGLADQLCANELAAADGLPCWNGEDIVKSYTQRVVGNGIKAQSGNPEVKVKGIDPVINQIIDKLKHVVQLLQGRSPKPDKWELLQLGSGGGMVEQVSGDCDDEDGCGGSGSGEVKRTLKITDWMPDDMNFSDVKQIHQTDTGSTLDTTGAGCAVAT
# [4] = molecular target: T4, recombinant human glypican-6 (human, UniProt Q9Y625 24-529); experiment: as above
# T4 construct: also called human GPC6; huGPC6
# T4 sequence (looked up): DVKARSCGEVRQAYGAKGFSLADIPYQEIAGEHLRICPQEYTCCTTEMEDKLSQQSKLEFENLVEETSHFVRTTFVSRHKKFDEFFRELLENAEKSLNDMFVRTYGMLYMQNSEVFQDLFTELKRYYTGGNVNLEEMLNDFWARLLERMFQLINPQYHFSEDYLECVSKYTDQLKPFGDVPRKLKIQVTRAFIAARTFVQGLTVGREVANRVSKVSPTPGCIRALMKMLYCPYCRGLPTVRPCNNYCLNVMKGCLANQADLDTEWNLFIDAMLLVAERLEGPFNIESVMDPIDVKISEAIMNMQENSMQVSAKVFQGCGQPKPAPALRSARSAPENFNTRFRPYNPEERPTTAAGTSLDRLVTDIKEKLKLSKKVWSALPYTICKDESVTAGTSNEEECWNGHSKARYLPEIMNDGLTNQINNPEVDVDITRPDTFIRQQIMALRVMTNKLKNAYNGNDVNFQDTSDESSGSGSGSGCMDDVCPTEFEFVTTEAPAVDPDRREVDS
# [5] = molecular target: T5, recombinant human glypican-3 (human, UniProt P51654 25-559); experiment: as above
# T5 construct: also called human GPC3; huGPC3
# [6] = molecular target: T2, recombinant human glypican-2 (GPC2); experiment: Octet kinetic analysis (BLI), FIG. 1C
# [7] = molecular target: T6, recombinant human glypican-1 (human, UniProt P35052 24-530); experiment: ELISA on recombinant human glypicans and mouse GPC2, absorbance OD450nm
# T6 construct: also called huGPC1
# T6 sequence (looked up): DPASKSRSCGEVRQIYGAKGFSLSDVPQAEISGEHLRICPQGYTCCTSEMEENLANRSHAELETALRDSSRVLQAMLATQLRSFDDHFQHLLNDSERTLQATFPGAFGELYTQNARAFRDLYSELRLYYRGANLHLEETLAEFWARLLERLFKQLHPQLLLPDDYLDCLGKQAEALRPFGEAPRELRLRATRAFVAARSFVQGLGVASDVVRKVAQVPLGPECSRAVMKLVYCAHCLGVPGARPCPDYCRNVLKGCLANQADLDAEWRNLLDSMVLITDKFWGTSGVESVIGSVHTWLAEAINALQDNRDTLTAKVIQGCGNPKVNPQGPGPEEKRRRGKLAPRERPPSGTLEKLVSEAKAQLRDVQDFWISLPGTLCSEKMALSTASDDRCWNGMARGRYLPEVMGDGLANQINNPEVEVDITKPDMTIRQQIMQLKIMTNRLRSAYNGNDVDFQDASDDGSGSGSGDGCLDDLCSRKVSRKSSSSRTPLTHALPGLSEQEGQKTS
# [8] = molecular target: T7, recombinant human glypican-4 (human, UniProt O75487 19-529, limits assumed); experiment: as above
# T7 construct: also called huGPC4
# T7 sequence (looked up): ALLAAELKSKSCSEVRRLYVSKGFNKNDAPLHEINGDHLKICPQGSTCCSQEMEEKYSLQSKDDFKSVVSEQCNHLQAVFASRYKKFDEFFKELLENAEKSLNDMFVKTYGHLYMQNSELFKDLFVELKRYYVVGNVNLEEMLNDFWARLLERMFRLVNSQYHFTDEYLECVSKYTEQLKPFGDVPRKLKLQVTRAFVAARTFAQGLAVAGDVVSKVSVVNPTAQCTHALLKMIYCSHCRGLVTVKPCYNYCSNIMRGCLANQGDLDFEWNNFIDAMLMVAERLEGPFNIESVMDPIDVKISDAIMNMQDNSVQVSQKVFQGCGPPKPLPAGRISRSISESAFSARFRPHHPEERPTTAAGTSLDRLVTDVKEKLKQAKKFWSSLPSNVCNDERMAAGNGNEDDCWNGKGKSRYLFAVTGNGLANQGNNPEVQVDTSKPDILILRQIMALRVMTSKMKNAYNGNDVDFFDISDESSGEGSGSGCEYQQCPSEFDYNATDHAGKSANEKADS
# [9] = molecular target: T3, recombinant human glypican-5; experiment: as above
# [10] = molecular target: T4, recombinant human glypican-6; experiment: as above
# recombinant mouse GPC2 = molecular target: T8, recombinant mouse GPC2 (mouse, UniProt Q8BKV1 22-556, limits assumed); experiment: as above
# T8 construct: also called msGPC2
# T8 sequence (looked up): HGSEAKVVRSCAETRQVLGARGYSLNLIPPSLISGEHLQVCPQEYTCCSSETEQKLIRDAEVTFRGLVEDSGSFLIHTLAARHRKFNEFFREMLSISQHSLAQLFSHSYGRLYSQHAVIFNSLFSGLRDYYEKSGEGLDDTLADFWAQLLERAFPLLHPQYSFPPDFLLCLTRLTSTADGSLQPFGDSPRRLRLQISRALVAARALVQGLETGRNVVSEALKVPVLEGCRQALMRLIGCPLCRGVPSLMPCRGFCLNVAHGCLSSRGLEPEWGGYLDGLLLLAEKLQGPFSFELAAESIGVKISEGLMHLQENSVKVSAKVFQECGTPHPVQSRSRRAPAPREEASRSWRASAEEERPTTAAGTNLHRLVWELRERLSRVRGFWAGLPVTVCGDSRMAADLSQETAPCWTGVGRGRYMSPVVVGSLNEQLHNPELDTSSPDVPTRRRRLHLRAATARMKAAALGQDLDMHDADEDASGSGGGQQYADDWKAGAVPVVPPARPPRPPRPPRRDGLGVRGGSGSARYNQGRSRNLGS
# Human GPC2-His = molecular target: T9, Human GPC2-His (human, UniProt Q8N158 24-554)
# T9 sequence: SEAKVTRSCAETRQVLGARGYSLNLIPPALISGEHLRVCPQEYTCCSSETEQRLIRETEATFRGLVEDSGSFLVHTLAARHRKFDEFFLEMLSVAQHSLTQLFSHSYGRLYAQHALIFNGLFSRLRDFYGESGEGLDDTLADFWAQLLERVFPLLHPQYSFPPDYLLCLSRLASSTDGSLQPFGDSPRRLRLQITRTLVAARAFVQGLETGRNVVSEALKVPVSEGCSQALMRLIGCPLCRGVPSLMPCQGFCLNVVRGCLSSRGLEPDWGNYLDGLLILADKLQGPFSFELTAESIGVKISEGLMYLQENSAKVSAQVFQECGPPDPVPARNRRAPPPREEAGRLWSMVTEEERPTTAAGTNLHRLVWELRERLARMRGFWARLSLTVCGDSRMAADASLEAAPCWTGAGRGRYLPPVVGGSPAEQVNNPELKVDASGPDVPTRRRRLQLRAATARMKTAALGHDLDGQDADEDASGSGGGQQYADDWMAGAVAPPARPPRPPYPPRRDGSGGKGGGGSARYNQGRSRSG
# T5 sequence (P51654 25-559 limits assumed): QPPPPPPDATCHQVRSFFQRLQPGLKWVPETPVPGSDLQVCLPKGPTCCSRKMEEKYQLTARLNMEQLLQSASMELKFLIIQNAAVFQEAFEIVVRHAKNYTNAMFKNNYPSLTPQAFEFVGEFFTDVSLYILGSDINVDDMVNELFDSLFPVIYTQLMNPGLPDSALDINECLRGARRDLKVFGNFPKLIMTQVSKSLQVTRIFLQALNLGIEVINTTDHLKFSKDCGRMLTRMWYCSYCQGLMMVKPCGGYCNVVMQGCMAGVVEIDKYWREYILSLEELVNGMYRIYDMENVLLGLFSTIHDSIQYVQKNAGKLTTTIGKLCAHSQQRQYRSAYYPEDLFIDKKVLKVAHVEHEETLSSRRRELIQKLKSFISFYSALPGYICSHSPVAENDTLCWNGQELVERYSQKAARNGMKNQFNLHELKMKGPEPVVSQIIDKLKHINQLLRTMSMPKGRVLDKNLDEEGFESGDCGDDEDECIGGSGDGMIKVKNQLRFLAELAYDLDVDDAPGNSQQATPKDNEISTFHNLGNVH
binder,measurement,setting,value
B1,binding result,[1],binds
same,binding result,[2],binds
same,binding result,[3],no binding
same,binding result,[4],no binding
same,binding result,[5],no binding
B2,Kd,[6],0.5 nM
same,binding result,[7],no binding
same,binding result,[8],no binding
same,binding result,[9],no binding
same,binding result,[10],no binding
same,binding result,recombinant mouse GPC2,no binding
same,binding result,[5],no binding
B3,Kd,Human GPC2-His,0.22 nM
B4,Kd,Human GPC2-His,0.16 nM
